Laboratory results taken from article PMC4474691, “Leukemia-Associated Mutations in Nucleophosmin Alter Recognition by CRM1: Molecular Basis of Aberrant Transport” (PLoS ONE, 2015).
Changes are numbered by the printed parent chain. Each block holds one molecule with its values, some of them ahead of it.

Target: T1, CRM1^HA (Mus musculus, UniProt Q6P5F9, L431A/V430A/V432A)
T1 construct: His-ZZ (cleaved yes); made in house; host or cells: Escherichia coli BL21-CodonPlus (DE3)
Test: Isothermal titration calorimetry, CRM1^HA / NES
Type: binding
Details: ITC, TFP-NES titrated onto CRM1^HA, 20°C, 20 mM HEPES pH 7.4; rounded; read-out: KD
Experimental: Isothermal titration calorimetry (ITC)
ITC measurements were carried out using a VIP-ITC MicroCalorimeter (MicroCal, Inc., Northampton, MA). TFP and YFP constructs, as well as CRM1^HA, were dialyzed in a buffer containing 20 mM HEPES, pH 7.4, 50 mM NaCl, 1 mM TCEP, 1 mM MgCl2, and degassed prior to the experiment. Untagged peptides (AS: QDLCLAVEEVSLRK, AL: EAIQDLCLAVEEVSLRK, ES: QDLWQSLAQVSLRK and EL: EAIQDLWQSLAQVSLRK), N-acetylated and 95% pure, were purchased from Proteogenix (Schiltigheim, France) and resuspended in the ITC buffer. Measurements were performed at 20°C. TFP-NES, YFP-NES or NES peptides at 35–180 μM were titrated onto CRM1^HA at 2–14 μM. Injections of 6 μL were performed at 320 seconds interval (the first injection always was of 1 μL and is not considered in data analysis). […]
The reaction heat of each injection is related to the calorimetric enthalpy of binding, ΔH^0. The binding isotherms, ΔH^0 vs. molar ratio, were analyzed with an independent binding sites model using MicroCal Origin software. […] The Gibbs free energy of binding ΔG^0 and the entropy ΔS^0 are determined from the basic thermodynamic expressions: ΔG^0 = -RTlnKA = ΔH^0−TΔS^0, where R and T are the gas constant and the absolute temperature, respectively. […]

T1 sequence (Q6P5F9 1-1062 V430A/L431A/V432A limits assumed): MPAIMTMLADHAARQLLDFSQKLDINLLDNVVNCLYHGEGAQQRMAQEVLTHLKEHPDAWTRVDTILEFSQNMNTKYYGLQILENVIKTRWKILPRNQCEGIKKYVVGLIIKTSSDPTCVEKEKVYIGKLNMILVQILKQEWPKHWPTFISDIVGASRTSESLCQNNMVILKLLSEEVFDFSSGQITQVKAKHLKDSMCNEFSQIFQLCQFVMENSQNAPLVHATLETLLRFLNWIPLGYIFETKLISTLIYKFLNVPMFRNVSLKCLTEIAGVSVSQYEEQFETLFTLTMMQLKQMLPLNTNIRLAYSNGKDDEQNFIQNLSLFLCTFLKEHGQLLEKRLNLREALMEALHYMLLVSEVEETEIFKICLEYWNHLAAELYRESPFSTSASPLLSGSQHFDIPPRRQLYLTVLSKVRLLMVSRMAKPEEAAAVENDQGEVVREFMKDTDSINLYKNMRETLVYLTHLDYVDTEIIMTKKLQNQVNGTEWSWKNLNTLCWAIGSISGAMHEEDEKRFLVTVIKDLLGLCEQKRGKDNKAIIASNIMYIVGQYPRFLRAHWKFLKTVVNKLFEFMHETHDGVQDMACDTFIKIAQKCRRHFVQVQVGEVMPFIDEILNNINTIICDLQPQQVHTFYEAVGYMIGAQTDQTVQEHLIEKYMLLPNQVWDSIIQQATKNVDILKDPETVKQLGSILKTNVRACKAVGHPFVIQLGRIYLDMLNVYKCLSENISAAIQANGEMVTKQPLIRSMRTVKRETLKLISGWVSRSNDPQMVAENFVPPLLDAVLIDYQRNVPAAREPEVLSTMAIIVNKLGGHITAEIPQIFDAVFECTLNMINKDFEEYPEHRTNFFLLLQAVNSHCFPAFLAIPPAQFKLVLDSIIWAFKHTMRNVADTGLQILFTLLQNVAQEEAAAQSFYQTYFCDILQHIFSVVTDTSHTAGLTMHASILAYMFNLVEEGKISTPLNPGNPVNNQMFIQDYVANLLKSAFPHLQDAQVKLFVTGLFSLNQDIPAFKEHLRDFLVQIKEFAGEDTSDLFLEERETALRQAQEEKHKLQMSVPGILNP

Kd: 1000 nM
B1: NPMmutE: AML-associated NPM mutant E; in b62 the value is for its NES as TFP construct (protein)
chain: MEDSMDMDMSPLRPQNYLFGCELKADKDYHFKVDNDENEHQLSLRTVSLGAGAKDELHIVEAEAMNYEGSPIKVTLATLKMSVQPTVSLGGFEITPPVVLRLKCGSGPVHISGQHLVAVEEDAESEDEEEEDVKLLSISGKRSAPGGGSKVPQKKVKLAADEDDDDDDEEDDDEDDDDDDFDDEEAEEKAPVKKSIRDTPAKNAQKSNQNGKDSKPSSTPRSKGQESFKKQEKTPKTPKGPSSVEDIKAKMQASIEKGGSLPKVEAKFINYVKNCFRMTDQEAIQDLWQSLAQVSLRK
modifications: full-length mutant E, pentamer (SEC); for the b62 value only the NES DLWQSLAQVSLRK as TFP fusion was assayed

Kd: 2400 nM
B2: NPMmutA: AML-associated NPM mutant A; in b62 the value is for its NES as TFP construct (protein)
chain: B1 chain with W288C, Q289L, S290A, L291V, A292E, Q293E
modifications: full-length mutant A, pentamer (SEC); for the b62 value only the NES DLCLAVEEVSLRK as TFP fusion was assayed
